Test [1] has as its target T1, Glypican-3 on human HCC cells (Hep3B, HepG2) and in HCC tissue (human, UniProt P51654 25-554). As to the kind of experiment: cell-based or functional assay.
In test [2] the target is T1, Glypican-3 on human HCC cells (Hep3B, …). As to the kind of experiment: confocal microscopy, Hep3B siGPC3 vs siCL. The text has this:
The specificity of lead candidate peptide reagent binding was validated by siRNA knockdown of GPC3 in human HCC cells. The cells were transfected with siRNA to knockdown cell surface expression of GPC3. […] These cells were transfected with non-targeting siRNA (siCL) for use as control. […] FIG. 6-1D,E show ˜4-fold reduction in fluorescence intensity with both the peptide reagent and anti-GPC3 antibody, respectively, for Hep3B cells transfected with siRNA (siGPC3) to knock down GPC3 expression. […] FIG. 6-2M, N, O and P show the same result as original FIG. 6-1A, B, D and E.

Test [3] shares this target. The test is described as follows: confocal microscopy on cells, ANOVA on log-transformed data. From the text: (§1) FIGS. 6-2A-Q show validation of specific peptide binding to cells in vitro. On confocal microscopy, we observed strong fluorescence intensity from ALL*-Cy5.5 binding to the surface (arrow) of A) Hep3B and B) HepG2 human HCC cells, and minimal signal with C) SK-Hep1 cells. D-F) Minimal signal is observed with the scrambled control peptide QLE*-Cy5.5 for all cells. Strong binding (arrow) is also observed with AF488-labeled anti-GPC3 antibody used as a positive control for G) Hep3B and H) HepG2 and minimal signal with I) SK-Hep1. […] The Hep3B versus SK-Hep1 difference was also larger for antibody than QLE (P=2.3×10⁻⁸, 6.0-fold larger). Intensity was measured with 6 replicates per condition and fitted to an ANOVA model with terms for 9 means to log-transformed data. […] We further validated specific peptide binding to GPC3 using siRNA knockdown. […] Q) Quantified fluorescence intensities. The siCL vs siGPC3 difference was 7.4 times bigger for ALL than the same difference for QLE (P=7.8×10⁻⁵), and the difference for antibody was 8.9 times bigger than for QLE (P=2.5×10⁻⁵), by ANOVA on log-transformed data. Results are an average of 6 images collected independently.

The target is the same in test [4]. As to the kind of experiment: confocal microscopy on Hep3B cells with siRNA knockdown of GPC3.
Source text: as §1, with “On” for “FIGS. 6-2A-Q show validation of specific peptide binding to cells in vitro. On”
The specificity of lead candidate peptide reagent binding was validated by siRNA knockdown of GPC3 in human HCC cells. The cells were transfected with siRNA to knockdown cell surface expression of GPC3. […] These cells were transfected with non-targeting siRNA (siCL) for use as control.

The target is the same in test [5]. The test is described as follows: immunofluorescence on human biopsies, ANOVA on log-transformed data.
For test [6] the target is unchanged. The test is described as follows: confocal microscopy of xenograft and normal mouse liver sections, n=26. The method, then: FIGS. 13A-I show validation of specific peptide binding to GPC3 overexpressed in mouse HCC xenograft tumors. Confocal microscopy of A) ALL*-Cy5.5 compared to B) QLE*-Cy5.5 to sections of Hep3B xenograft tumors. Fluorescence intensities were measured from sets of 3 (dashed white) boxes with dimensions of 20×20 μm2.
The specimens were also sectioned for collection of confocal images to perform microscopic validation of peptide binding ex vivo. We found increased cell surface staining of ALL*-Cy5.5 compared with QLE*-Cy5.5 to Hep3B xenograft (arrow), FIG. 13A,B. Overexpression of GPC3 on cell surface of Hep3B xenograft was confirmed with known antibody, FIG. 13C.

The target is the same in test [7]. As to the kind of experiment: affinity restated in the discussion of the studies (flow cytometry on Hep3B cells). The method, then:
(§2) The apparent dissociation constant (kd) was measured for the optimized GPC3 peptide to Hep3B cells to provide an assessment of peptide binding affinity. The ALL*-Cy5.5 peptide reagent was serially diluted in PBS at concentrations ranging from 0 to 200 nM in 25 nM increments and incubated with Hep3B cells. The mean fluorescence intensities was measured on flow cytometry. The equilibrium dissociation constant kd=1/kₐ was calculated by performing a least squares fit of the data to the non-linear equation I=(I₀+Iₘₐₓkₐ[X])/([…]). I₀and Iₘₐₓ are the initial and maximum fluorescence intensities, corresponding to no peptide and at saturation, respectively, and [X] represents the concentration of the bound peptide.

The target is the same in test [8]. As to the kind of experiment: flow cytometry, mean fluorescence of Hep3B cells with 0-200 nM peptide; apparent dissociation constant. As to the method:
as §2

Ends that are not written are not given here.

T1 sequence (P51654 25-554 limits assumed): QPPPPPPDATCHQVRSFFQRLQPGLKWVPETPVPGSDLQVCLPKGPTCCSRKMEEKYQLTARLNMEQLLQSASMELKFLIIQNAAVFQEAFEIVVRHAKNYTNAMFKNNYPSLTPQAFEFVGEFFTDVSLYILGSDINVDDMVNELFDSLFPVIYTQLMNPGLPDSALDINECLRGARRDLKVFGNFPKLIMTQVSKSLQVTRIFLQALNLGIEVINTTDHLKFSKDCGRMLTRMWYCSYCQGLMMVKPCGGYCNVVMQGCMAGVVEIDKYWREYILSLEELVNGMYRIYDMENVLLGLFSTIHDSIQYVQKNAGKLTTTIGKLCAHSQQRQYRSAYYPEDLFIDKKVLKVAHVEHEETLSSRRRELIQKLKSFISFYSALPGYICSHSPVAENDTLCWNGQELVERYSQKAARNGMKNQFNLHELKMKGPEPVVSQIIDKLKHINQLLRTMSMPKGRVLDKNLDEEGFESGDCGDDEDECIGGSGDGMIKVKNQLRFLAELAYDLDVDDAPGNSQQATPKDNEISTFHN

Consider ALLANHEELFQT [unlabeled ALL* peptide (ALLANHEELFQT)], for which, in test [1], the “reduction of T/B ratio of ALL*-Cy5.5 by blocking with 3-fold unlabeled targeting peptide dose” value is 1.65 fold and the “reduction of T/B ratio of ALL*-Cy5.5 by blocking with 10-fold unlabeled targeting peptide dose” value was 3.56 fold.
QLELTFHANLEAGGGSK(sulfo‑Cy5.5) [QLE*-Cy5.5 scrambled control peptide (QLELTFHANLEA-GGGSK-Cy5.5)]: in test [1], the “target-to-background (T/B) ratio at 2 hours, in vivo whole-body NIR fluorescence imaging of Hep3B xenograft” value was 1.12 and the “target-to-background ratio, in vivo NIR laparoscopy of Hep3B xenograft 2 hours after injection” value worked out at 3.

B1: ALL*-Cy5.5 peptide reagent (ALLANHEELFQT-GGGSK-Cy5.5) (peptide)
peptide: ALLANHEELFQTGGGSK(sulfo‑Cy5.5)
notes: also called lead candidate GPC3 peptide; optimized GPC3 peptide
On to B1, for which, in test [1], the “fluorescent intensity of ALL*-Cy5.5 against control peptide QLE*-Cy5.5, in vivo dual axes confocal endomicroscopy” value was 2.9 fold; the “target-to-background (T/B) ratio at 2 hours, in vivo whole-body NIR fluorescence imaging of Hep3B xenograft” value is 3.91; the “target-to-background ratio of ALL*-Cy5.5 against QLE*-Cy5.5, in vivo NIR laparoscopy” value was determined as 2.8 fold; the “target-to-background ratio, in vivo NIR laparoscopy of Hep3B xenograft 2 hours after injection” value amounted to 8.3. Moreover, the “fold reduction in fluorescence intensity on GPC3 knockdown” value in test [2] is approximately 4 fold. For the same molecule, in test [3], the “fold, intensity difference Hep3B vs SK-Hep1 against the same difference for QLE*” value came out at 8.2 fold and the “fold, intensity difference HepG2 vs SK-Hep1 against the same difference for QLE*” value is 3.3 fold. Besides, the “fold, siCL vs siGPC3 difference against the same difference for QLE” value in test [4] stood at 7.4 fold. Besides, in test [5], the “fold, signal in human HCC against adenoma” value turned out to be 2.48 fold; the “fold, signal in human HCC against cirrhosis” value is 2.05 fold; the “fold, signal in human HCC against normal liver” value came out at 3.43 fold. Also, in test [6], the “fold, intensity from peptide binding to HCC (Hep3B xenograft) against normal liver” value stood at 2.22 fold. The same molecule came in with a Kd in test [7] of 71.3 nM. In addition, in test [8], the Kd was 71 nM.

The values are drawn from patent US20200010508A1 (REGENTS OF THE UNIVERSITY OF MICHIGAN, published 2020).
